Assay results reported in patent publication US20090304580A1.

Target: PAM4 antigen (human pancreatic cancer mucin, CaPan1) (human)
Assay: ELISA on target mucin antigen (FIG. 9)

EC50: 30.6 nM
B1: monovalent bsPAM4 chemical conjugate (PAM4-Fab′ x anti-DTPA-Fab′) (bispecific antibody, part only; not given: Anti-DTPA Fab′ and constant parts, V domains shown, part only)
VH: QVQLQESGPELVKPGASVKMSCKASGYTFPSYVLHWVKQKPGQGLEWIGYINPYNDGTQYNEKFKGKATLTSDKSSSTAYMELSRLTSEDSAVYYCARGFGGSYGFAYWGQGTLITVSS
VL: DIQLTQSPAIMSASPGEKVTMTCSASSSVSSSYLYWYQQKPGSSPKLWIYSTSNLASGVPARFSGSGSGTSYSLTISSMEAEDAASYFCHQWNRYPYTFGGGTKLEIKR
